Test results: paper PMC10653885 (mBio, 2023)

Columns and labels:
[1] = target: recombinant BB0238 P65A (rP65A) (Borrelia burgdorferi B31); assay: SEC; analytical size exclusion chromatography on a calibrated Superose 12 column; apparent molecular masses from a standard curve
[2] = target: recombinant BB0238 Y37A (rY37A) (Borrelia burgdorferi B31); assay: MST; 10 nM target protein labelled with Red-tris-NTA dye; 12-point 1:1 serial dilution of the ligand from 20 µM; PBS + 0.05% Tween-20, pH 7.4; 40% MST power, 10% LED power; TJump analysis, KD fit model of 1:1 stoichiometry; three biological replicates
[3] = target: recombinant BB0238 P65A (rP65A) (Borrelia burgdorferi B31); assay: as above
[4] = target: recombinant BB0238 Y37A (rY37A) (Borrelia burgdorferi B31); assay: SEC; analytical size exclusion chromatography on a calibrated Superose 12 column; apparent molecular masses from a standard curve
[5] = target: recombinant BB0323 (rBB0323) (Borrelia burgdorferi) (UniProt O51302); assay: MST; 10 nM target protein labelled with Red-tris-NTA dye; 12-point 1:1 serial dilution of the ligand from 20 µM; PBS + 0.05% Tween-20, pH 7.4; 40% MST power, 10% LED power; TJump analysis, KD fit model of 1:1 stoichiometry; three biological replicates
[6] = target: recombinant wild-type BB0238 (rBB0238^WT) (Borrelia burgdorferi B31) (UniProt O51254); assay: as above
[7] = target: the molecule itself; assay: SEC; analytical size exclusion chromatography on a calibrated Superose 12 column; apparent molecular masses from a standard curve
[8] = target: T1, recombinant BB0323 (rBB0323) (Borrelia burgdorferi, UniProt O51302 1-377, labelled with NanoTemper Red-tris-NTA dye (only in the MST with BB0108)); assay: MST; 10 nM target protein labelled with Red-tris-NTA dye; 12-point 1:1 serial dilution of the ligand from 20 µM; PBS + 0.05% Tween-20, pH 7.4; 40% MST power, 10% LED power; TJump analysis, KD fit model of 1:1 stoichiometry; three biological replicates; details: both partners purified
T1 sequence: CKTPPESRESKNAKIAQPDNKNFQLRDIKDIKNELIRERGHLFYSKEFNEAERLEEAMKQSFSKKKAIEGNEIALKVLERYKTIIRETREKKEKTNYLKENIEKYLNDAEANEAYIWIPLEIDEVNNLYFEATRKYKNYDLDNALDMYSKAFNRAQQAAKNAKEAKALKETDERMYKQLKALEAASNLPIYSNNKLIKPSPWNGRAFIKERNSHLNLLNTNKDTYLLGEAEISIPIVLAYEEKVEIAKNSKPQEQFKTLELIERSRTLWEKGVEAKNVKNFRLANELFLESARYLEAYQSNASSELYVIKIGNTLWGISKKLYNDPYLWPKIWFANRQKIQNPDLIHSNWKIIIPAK

In the case of “recombinant BB0238 P65A (rP65A) (natural protein)”, the stoichiometry N [1] is reported as 2.

“recombinant BB0323 (rBB0323) (from UniProt O51302 1-377) (natural protein)” was tested, and the Kd [2] was 658 nM and the Kd [3] was 702 nM.

Work on “recombinant BB0238 Y37A (rY37A) (natural protein)” yielded a stoichiometry N [4] of 2.

In the case of recombinant BB0108 (enzyme), the Kd [5] is reported as 2330 nM and the Kd [6] is reported as 1890 nM.

B1: recombinant wild-type BB0238 (rBB0238^WT) (natural protein)
chain: SSYIDKQKELAIFYYEVGQRYINVGKIKKGKLFQAKALKIYPDLKKGFDIKLAVKELDARIKDDNPKVVMLEDIKLEEIPGIVHEKIEINDFTNAPKIEYIAQRERSKNQDKIIKFQFGKFARALISRNFDLFDSVIADKVNVMGQFESKNDFISTLSSASSKADADELEYLSVDDYYDLKSLKISKSNDTSFAVNVNAKKNDVTKNFPFWKERQTLIFTTEDDNNWFLSSIN
modifications: labelled with NanoTemper Red-tris-NTA dye (in MST only)
B1 was tested, and the “stoichiometry N” value [7] was 2 and the Kd [8] was 1000 nM.
